According to patent publication US20260055142A1, “PHARMACEUTICAL USE OF POLYPEPTIDE IN PREPARATION OF DRUGS FOR TREATING AND/OR PREVENTING DIABETES AND OBESITY AND RELATED DISEASES THEREOF” (GUANGDONG RAYNOVENT BIOTECH CO., LTD., priority 2022, published 2026):
Like-named read-outs stand apart in the source and are kept apart here. Positions of bridges follow the written chain, without caps; N, C: chain ends. Non-standard residues stand in square brackets, D forms with d. No end group written: not given here. Ida bridge carrying fatty‑acid side chain of Intermediate A‑1 = not defined here; Aib = CC(C)(N)C(=O)O

T1: GIPR (UniProt P48546 22-466, limits assumed)
T1 sequence (looked up): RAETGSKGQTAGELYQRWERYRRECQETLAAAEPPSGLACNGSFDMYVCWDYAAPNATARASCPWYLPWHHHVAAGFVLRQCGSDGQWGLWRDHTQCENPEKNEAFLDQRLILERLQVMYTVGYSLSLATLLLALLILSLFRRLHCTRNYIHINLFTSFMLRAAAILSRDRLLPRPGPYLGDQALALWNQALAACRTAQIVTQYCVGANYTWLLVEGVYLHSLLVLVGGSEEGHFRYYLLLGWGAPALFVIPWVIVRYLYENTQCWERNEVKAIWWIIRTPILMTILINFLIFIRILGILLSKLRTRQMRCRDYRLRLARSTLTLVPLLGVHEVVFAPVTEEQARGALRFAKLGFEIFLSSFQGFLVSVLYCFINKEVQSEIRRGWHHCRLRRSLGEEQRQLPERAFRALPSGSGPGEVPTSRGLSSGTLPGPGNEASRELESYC

B1: polypeptide WX-005 (peptide)
peptide: Y[Aib]EGTFTSDYSI[Aib]LDKKAQKAFVEWLIAGGPSSGAPPPS-NH2
modifications: linker 17-20 via Ida; also: Ida bridge carries fatty-acid side chain of Intermediate A-1
B2: polypeptide WX-009 (peptide)
peptide: Y[Aib]EGTFTSDYSI[Aib]LDKKAQKEFVEWLIAGGPSSGAPPPS-NH2
modifications: linker 17-20 via Ida bridge carrying fatty‑acid side chain of Intermediate A‑1; reading uncertain
B3: polypeptide compound WX-001 (peptide)
peptide: Y[Aib]EGTFTSDYSI[Aib]LDKIAQKAFVKWLIAGGPSSGAPPPS-NH2
modifications: linker 20-24 via Ida bridge carrying fatty‑acid side chain of Intermediate A‑1; reading uncertain
B4: polypeptide WX-010 (peptide)
peptide: Y[Aib]EGTFTSDYSI[Aib]LDKKAQKAFVEWLIAGGPSSGAPPPS-NH2
modifications: bridge 17-20; not fully specified (bridges); also: Glu bridge amino group carries fatty-acid side chain of Intermediate A-1

Legend:
human plasma albumin = type: in vitro ADME
Procedure: (§1) To study the binding of the test compounds to human/mouse plasma albumin. • 1. Blank matrix preparation: On the day of the experiment, the plasma was thawed in cold water and centrifuged at 3220 rpm for 5 min to remove all the blood clots. The pH of the resulting plasma was measured and adjusted to 7.4±0.1 with 1% phosphoric acid or 1 N sodium hydroxide as desired. • 2. Dilution of the test compounds: the test compounds were dissolved in dimethyl sulfoxide (DMSO) to prepare stock solutions of 10 mM and 2 mM, respectively. 2 μL of the stock solution (2 mM) was diluted with 98 μL of DMSO to obtain a working solution of 40 μM. 10 μL of the stock solution was diluted with 240 μL of DMSO to obtain a working solution of control compounds of 400 μM. A working solution of the compounds (5 μL) was mixed evenly with a blank matrix (995 μL) at a ratio of 1:200 to prepare a loading matrix. • 3. Analytical procedure • 3.1 Equal amounts of 30 μL of the loading matrix (n=2) were transferred into a sample collection plate to prepare Time 0 (T0) samples for residue determination. The samples were immediately matched with corresponding blank buffer to a final volume of 60 μL, with a volume ratio of plasma (the loading matrix) to buffer being 1:1 in each well. Then, into the TO samples of the test compounds were respectively added 60 μL of 4% H3PO4 in H2O and 480 μL of stop solution containing internal standard. They were then stored at 2° C. to 8° C. together with other samples for further treatment. • 3.2 The remaining plasma samples were pre-incubated in a carbon dioxide incubator at 37±1° C. for 30 min. Protein-free samples (F samples) were prepared. Matrix-loaded samples (230 μL) were all transferred into polycarbonate tubes (n=2) and ultracentrifuged at 37° C. and 155,000×g (35000 rpm) for 4 h. • 3.3 To prepare T samples (test samples), an additional matrix-containing sample was transferred into a separate 96-well plate (sample incubation plate) and incubated at 37° C. for 4 h. • 3.4 At the end of centrifugation, 30 μL of protein-free samples (F samples) and 30 μL of T samples were taken from the second layer (beneath the upper layer) of the supernatant and transferred into a new sample collection plate. Each sample was mixed with corresponding blank buffer or matrix to a final volume of 60 μL, and the blank matrix:buffer volume ratio is 1:1. Into all the samples were added 60 μL of 4% H3PO4 solution in water and 480 μL of stop solution containing internal standard. The mixture was centrifuged at 4000 rpm for 20 min. 100 μL of supernatant for each sample was taken for LC-MS/MS analysis.

mouse plasma albumin = type: in vitro ADME
Procedure: as §1

[1] = parameters: species or system SD rats; details: rat, in vivo, sc, 0.048 mg/kg
Procedure: To test the pharmacokinetic profiles of the compounds in SD rats. The pharmacokinetic characteristics in rodent animals following subcutaneous injection of the compounds were tested using standard protocols. In the experiment, the candidate compounds were formulated into clear solution, which was administered to the rats by single subcutaneous injection (SC, 0.048 mpk). The vehicle for injection was citrate buffer solution (20 mM, pH=7). The whole blood was collected and processed to get the plasma. The drug concentration was analyzed by LC-MS/MS, and the pharmacokinetic parameters were calculated using Phoenix WinNonlin software.

[2] = parameters: species or system Cynomolgus macaques; details: cynomolgus monkey, in vivo, sc, 0.02 mg/kg
Procedure: To test the pharmacokinetic profiles of the compounds in Cynomolgus macaques. The pharmacokinetic characteristics in mammals following intravenous injection and subcutaneous injection of the compounds were tested using standard protocols. In the experiment, the candidate compounds were formulated into clear solution, which was administered to Cynomolgus macaques by single subcutaneous injection (SC, 0.02 mpk). The vehicle for subcutaneous injection was citrate buffer solution (20 mM, pH=7). The whole blood was collected and processed to get the plasma. The drug concentration was analyzed by LC-MS/MS, and the pharmacokinetic parameters were calculated using Phoenix WinNonlin software.

[3] = parameters: species or system C57BL/6 mice; details: mouse, in vivo, sc, 0.048 mg/kg
Procedure: To test the pharmacokinetic profiles of the compounds in C57BL/6 mice. The pharmacokinetic characteristics in rodent animals following subcutaneous injection of the compounds were tested using standard protocols. In the experiment, the candidate compounds were formulated into clear solution, which was administered by subcutaneous injection (SC, 0.048 mpk). The vehicle for subcutaneous injection was citrate buffer solution (20 mM, pH=7). The whole blood was collected and processed to get the plasma. The drug concentration was analyzed by LC-MS/MS, and the pharmacokinetic parameters were calculated using Phoenix WinNonlin software.

GLP-1R = GLP-1R (UniProt P43220 24-463, limits assumed); test: cell-based or functional assay
GIPR = target: T1, GIPR; test: cell-based or functional assay

Row | Molecule | PPB % unbound (H) (human plasma albumin) | PPB % unbound (M) (mouse plasma albumin) | EC50, cAMP assay, (+) 1% HSA (GLP-1R) [nM] | EC50, cAMP assay, (-) 1% HSA (GLP-1R) [nM] | Ratio (EC50 (+) 1% HSA over (-) 1% HSA) (GLP-1R) | EC50, cAMP assay, (+) 1% HSA (GIPR) [nM] | EC50, cAMP assay, (-) 1% HSA (GIPR) [nM] | Ratio (EC50 (+) 1% HSA over (-) 1% HSA) (GIPR) | other results
1 | CC[C@H](C)[C@H](NC(=O)[C@H](CC(C)C)NC(=O)[C@H](Cc1c[nH]c2ccccc12)NC(=O)[C@H](CCC(=O)O)NC(=O)[C@@H](NC(=O)[C@H](Cc1ccccc1)NC(=O)[C@H](C)NC(=O)[C@@H]1CCCCNC(=O)CN(C(=O)COCCOCCNC(=O)COCCOCCNC(=O)CC[C@H](NC(=O)CCCCCCCCCCCCCCCCCCC(=O)O)C(=O)O)CC(=O)NCCCC[C@H](NC(=O)[C@H](CCCCN)NC(=O)[C@H](CC(=O)O)NC(=O)[C@H](CC(C)C)NC(=O)C(C)(C)NC(=O)[C@@H](NC(=O)[C@H](CO)NC(=O)[C@H](Cc2ccc(O)cc2)NC(=O)[C@H](CC(=O)O)NC(=O)[C@H](CO)NC(=O)[C@@H](NC(=O)[C@H](Cc2ccccc2)NC(=O)[C@@H](NC(=O)CNC(=O)[C@H](CCC(=O)O)NC(=O)C(C)(C)NC(=O)[C@@H](N)Cc2ccc(O)cc2)[C@@H](C)O)[C@@H](C)O)[C@@H](C)CC)C(=O)N[C@@H](C)C(=O)N[C@@H](CCC(N)=O)C(=O)N1)C(C)C)C(=O)N[C@@H](C)C(=O)NCC(=O)NCC(=O)N1CCC[C@H]1C(=O)N[C@@H](CO)C(=O)N[C@@H](CO)C(=O)NCC(=O)N[C@@H](C)C(=O)N1CCC[C@H]1C(=O)N1CCC[C@H]1C(=O)N1CCC[C@H]1C(=O)N[C@@H](CO)C(N)=O [WX-005] | NA/NA | NA/NA |  |  |  |  |  |  | 
2 | CC[C@H](C)[C@H](NC(=O)[C@H](CC(C)C)NC(=O)[C@H](Cc1c[nH]c2ccccc12)NC(=O)[C@H](CCC(=O)O)NC(=O)[C@@H](NC(=O)[C@H](Cc1ccccc1)NC(=O)[C@H](CCC(=O)O)NC(=O)[C@@H]1CCCCNC(=O)CN(C(=O)COCCOCCNC(=O)COCCOCCNC(=O)CC[C@H](NC(=O)CCCCCCCCCCCCCCCCCCC(=O)O)C(=O)O)CC(=O)NCCCC[C@H](NC(=O)[C@H](CCCCN)NC(=O)[C@H](CC(=O)O)NC(=O)[C@H](CC(C)C)NC(=O)C(C)(C)NC(=O)[C@@H](NC(=O)[C@H](CO)NC(=O)[C@H](Cc2ccc(O)cc2)NC(=O)[C@H](CC(=O)O)NC(=O)[C@H](CO)NC(=O)[C@@H](NC(=O)[C@H](Cc2ccccc2)NC(=O)[C@@H](NC(=O)CNC(=O)[C@H](CCC(=O)O)NC(=O)C(C)(C)NC(=O)[C@@H](N)Cc2ccc(O)cc2)[C@@H](C)O)[C@@H](C)O)[C@@H](C)CC)C(=O)N[C@@H](C)C(=O)N[C@@H](CCC(N)=O)C(=O)N1)C(C)C)C(=O)N[C@@H](C)C(=O)NCC(=O)NCC(=O)N1CCC[C@H]1C(=O)N[C@@H](CO)C(=O)N[C@@H](CO)C(=O)NCC(=O)N[C@@H](C)C(=O)N1CCC[C@H]1C(=O)N1CCC[C@H]1C(=O)N1CCC[C@H]1C(=O)N[C@@H](CO)C(N)=O [WX-009] | NA/NA | NA/NA |  |  |  |  |  |  | AUC(0-t) [1]: 1.09 µM·h; half-life [1]: 21 h; AUC(0-t) [2]: 4.74 µM·h; half-life [2]: 105 h; AUC(0-t) [3]: 1.99 µM·h; half-life [3]: 17 h
3 | B1 |  |  | 7.63 | 0.036 | 212 | 19.3 | 0.16 | 121 | 
4 | B2 |  |  |  | 0.014 |  |  | 0.074 |  | 
5 | B3 |  |  | 16.6 | 0.0596 | 279 | 16 | 0.324 | 49.3 | 
6 | B4 |  |  |  | 0.017 |  |  | 0.14 |  | 
